Experimental data from the supplement of paper PMC9170038.

test system: MS2 coat protein; assay: apparent KD of MS2 coat protein; higher = weaker reporter binding; conditions: Eterna round: R107; input ligand: theophylline 20 uM
Procedure, shortened: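 With or without constant ligand, designed RNA switches in 100 mM Tris-HCl pH 7.5, 80 mM KCl and 4 mM MgCl2 were titrated with SNAP-549-labelled MS2 coat protein. Concentrations went up in twofold steps from 0.7 or 1.5 nM to 3 µM. The switches had been transcribed on-chip from Illumina sequencing clusters, and apparent KD is the per-design median of normalised cluster binding-curve fits.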

Row | Sequence | apparent KD of MS2 coat protein
1 | AAUGUAUGGCACAUGAGGAUCACCCAUGUGCGAGGACCGGUACGGCCGCCACUCGGUCGGUGGUUAAUGAAGCUAUACAUUAAUG [XTryp A #13] | 53.5 nM
2 | CCAUAGGGUAAAUACAUAAUCAUAUCUGAAGGAGCGUGGAUAAACACAGGUAGGUCGCAGAAUCACAUGAGGAUCACCCAUGUCU [Same State Arginine A GF11] | 53.5 nM
3 | AUUAAUAGUUGUGAUACCAGACGAACAUGAGGAUCACCCAUGUAACUUUUAGGUGUUGUAGUCCCUUGGCAGCACUAUUUAGUUA [JR_SSTheophyB_Sub014] | 48.4 nM
4 | GAUGAACUAUUUGAUACCAGACUACAUGAGGAUCACCCAUGUGUGUUAAUUUUUCAGUCAGUCCCUUGGCAGCAAAUAGUUUAUC [XTheo B #2] | 70.7 nM
5 | UUAUGCAGGUCGGCCGCCACUACACACAUGAGGAUCACCCAUGUAGUUACUGGGUGAAGUGGCAGUAGGACCGGGACCUGCAUAU [Brourdmod05] | 449 nM
6 | UCGCCCGGGUCGGCCGCCACUGAGGUAAUAUGACAUGAGGAUCACCCAUGUUGUCAUGUGGAACAUAGGACCGGGACCCGGGCGA [Exclusion - Tryptophan B Attempt #1 (HarryS)] | 15.1 nM
7 | AGUCUGGACUCGGCCGCCACUCGUGAUGCUUUGGCACAUGAGGAUCACCCAUGUGGUCGGCCUUAGAGGACCGGGAGUACCAGCU [Zaraoned] | 65.9 nM
8 | GGGCUGUGACCAGGAAAUGGUCACAGCCCACGAGGACCGGUACGGCCGCCACUCGAAAGUACAUGAGGAUCACCCAUGUCGGUGG [#1 Same State - Tryptophan A Attempt #8 (HarryS)] | 30.6 nM
9 | UGGGUACAUGAGGAUCACCCAUGUACUGAAGGAGCGAGAAAUAACUCAGGUAGGUCGCAGACAUGAGGAUCACCCAUGUAAUAAA [Exclusion Arginine A GF 10] | 23.4 nM
10 | AUACCUAGUGAGUCGUGUUUCUUUUCAGAUACCAGACUUUUCGUUGUCCCUUGGCAGCUGUUUUACAUGAGGAUCACCCAUGUUG [JR_ExcTheophyA_Sub007] | 18.4 nM
11 | CGGUCGGUCGGCCGGUGAUUAUGGGAUGAAGGAGCGUGGGAAGCUACAGGUAGGUCGCAUCCGAAACACGAGGAUCACCCGUGUU [SSArg A #25Alt-Ms2 Mod] | 38.3 nM
12 | ACCGAGGCAAUGGAUACCAGUGCGCCACAAUCGUGCUUCAACAUGAGGAUCACCCAUGUGCACCCUUGGCAGCCAACGGGCUCAU [theeternabot_exclusion_MS2_Theo_B_19] | 25.3 nM
13 | UAACAUGAGGAUCACCCAUGUAUAGUCGAUACCAGCUCAAGGAAGAGCCCUUGGCAGCGACACUGCCAAGCAUGGGUCAUGGCAG [(Ms2)-(Theo)-(T)'-(M)'-(T)''_Design5] | 31.9 nM
14 | AGUCGAAACUGAAGGAGCGAGAUGACAACAUUGGGUCUAACAUGAGGAUCACCCAUGUAAUCUCAGGUAGGUCGCAGUAACAAAA [Exclusion Arginine B GF 16] | 165 nM
15 | GUACAUGAGGAUCACCCAUGUAUAGUUGAAGGAGCGACCGGUGGGUCAGGUAGGUCGCAGCGCAUGGCGUCCACGCGUGUAUGCC [#1 Exclusion - Arginine A Attempt #29 (Inspired by Pi)] | 17.1 nM
16 | AACUGGACCAGUGAUACCAGAGACAUGAGGAUCACCCAUGUACAUGAGGAUCACCCAUGUCUCCCUUGGCAGCACAGCAGGGAGC [Exclusion Theophylline B Gf12] | 109 nM
17 | UAAUAAUCCAGGGUGUAGGUAAUAACAGAUACCAGCCAGAUAACUGGCCCUUGGCAGCUGAAAACCUGAGGAUCACCCAGGUAAA [TheoAS 23 #OpenEnded #MS2Late #AlternativeMS2] | 122 nM
18 | CUCCGAGGCUAUACUAUCCGCCUCUGUGAUACCAGAAUACCUAUAUUCCCUUGGCAGCAUCACAUGAGGAUCACCCAUGUGCCAU [SSTheo A #13] | 16.8 nM
19 | GGUGGCGGGACUGAUACCAGCCACCACCGAUAGACCACAUGAGGAUCACCCAUGUUGGGUGGCCCUUGGCAGCAGUCUUGCGGCU [#1 Same State - Theophylline B Attempt #14 (HarryS)] | 523 nM

same assay, conditions: Eterna round: R107; input ligand: theophylline 2 mM

Row | Sequence | apparent KD of MS2 coat protein
20 | UGUAUGUGAUCUGAUACCAGUCCAACUGGUAAAAUAUGAGGAUCACCCAUAUAAAAUUGGGACCCUUGGCAGCAGAUCGCAUACU | 129 nM
21 | ACCGAAAGCUCACAUGAGGAUCACCCAUGUCGAGGACCGGUACGGCCGCCACUCGGCAAAUAUAAGGGUGGACGCGUCUCUGCGU [Soramasoso] | 62.1 nM
22 | AAUUCAAUUUUCUUGAUGUAUUAUAUAUUUCGAGGACCGGUACGGCCGCCACUCGUUAAUUACAUGAGGAUCACCCAUGUUAGCU [JR_ExcTryptoA_Sub009] | 16.2 nM
23 | GCGUACGAUCGGGAUACCAGACAUUGCCGUUAGGGUGAACCUGAGGAACACCCAGGUUUUGUCCCUUGGCAGCCCGAUCGUACGC [ETB NP+V+V2 #8 Diff Apt, Same Structure] | 136 nM
24 | GUAGCUAUCGCGGCCGCCACUAAACCGGAAACGGAACAGUAGGAUCACCAUUGUGGCGAAAGCCAUAGGACCGGGCGAUAGCUAC [TryBS - Double Magnet system 2] | 1210 nM
25 | GCGCGGCGAGUGCGGCGUGUUCCGCUCCGUCGAGGACCGGUACGGCCGCCACUCGACAUGAGGAUCACCCAUGUCGCCGCGCGUC [Exclusion - Tryptophan A Attempt #1] | 19.2 nM
26 | GCCUCCAGCCGAAGGAGCGCUAGAAGGUGACAUGAGGAUCACCCAUGUGUGUGAUGUGGCUAGCAGGUAGGUCGCGGAGGAGGUA [Exclusion - Arginine B (Freestyle 21)] | 111 nM
27 | CUACAUGUAGUUAAACCGGUCAACAAUAAUCGAGGACCGGUACGGCCGCCACUCGAUGUGUUAUACACAUGAGGAUCACCCAUGU [Tryptophan A 15] | 27.8 nM
28 | ACAUGAGGAUCACCCAUGUUAAGCAGGGUGCGAGGACCGGUACGGCCGCCACUCGGACAUUAUUACGAGUGAAUGGUAACGAUGU [#14 Exclusion Tryptophan A] | 24.5 nM
29 | AGUUAUUUCCGAAGGAGCGUUAUACAUGAGGAUCACCCAUGUACAUGAGGUUCAACAUGAAAACAGGUAGGUCGCGGAUUUUGUC [Exclusion Arginine B4] | 29 nM
30 | CUGGCAGGAUUCUCAGCUGUCAGGGCUGAUACCAGCCACGAAAGUGGCCCUUGGCAGCAGCAAACAUGAGGAUCACCCAUGUAAU [(T)''-(M)'-(T)'-(Theo)-(Ms2)_Design1] | 46.3 nM
31 | UGAUACCAGUCGGCCGCCACUACAUGAGGAUCACCCAUGUAUGGGUCAAUGCUAGAUACUAGCAGUAGGACCGGGACUGGUAUCU | 13.2 nM
32 | AAUGUAUGGCACAUGAGGAUCACCCAUGUGCGAGGACCGGUACGGCCGCCACUCGGUCGGUGGUUAAUGAAGCUAUACAUUAAUG [XTryp A #13] | 55.1 nM
33 | CCAUAGGGUAAAUACAUAAUCAUAUCUGAAGGAGCGUGGAUAAACACAGGUAGGUCGCAGAAUCACAUGAGGAUCACCCAUGUCU [Same State Arginine A GF11] | 52.6 nM
34 | UUAUGCAGGUCGGCCGCCACUACACACAUGAGGAUCACCCAUGUAGUUACUGGGUGAAGUGGCAGUAGGACCGGGACCUGCAUAU [Brourdmod05] | 832 nM
35 | UCGCCCGGGUCGGCCGCCACUGAGGUAAUAUGACAUGAGGAUCACCCAUGUUGUCAUGUGGAACAUAGGACCGGGACCCGGGCGA [Exclusion - Tryptophan B Attempt #1 (HarryS)] | 15.2 nM
36 | AGUCUGGACUCGGCCGCCACUCGUGAUGCUUUGGCACAUGAGGAUCACCCAUGUGGUCGGCCUUAGAGGACCGGGAGUACCAGCU [Zaraoned] | 61.3 nM
